Laboratory results published in publication PMC7279886, “A non-linear system patterns Rab5 GTPase on the membrane” (eLife, 2020).

How the values were obtained:
Conditions in all cases: both partners purified
Rabex5/Rabaptin5 complex = biological target: T1, Rabex5/Rabaptin5 complex (Bos taurus | human, UniProt O18973 1-492; Q15276 1-862); assay: HDX-MS; Rabex5/Rabaptin5 premixed with Rab5:GDP, ternary complex diluted into deuterated buffer without GTPγS, 1, 5 and 15 min, 22 °C
T1 construct: Rabex5, Bos taurus, 57 kDa Vps9 domain containing GEF for Rab5; Rabaptin5, human, 99 kDa; also called GEF/effector complex; not shown: GST, N-terminal, cleaved; copies: 2 + 2
T1 sequence (O18973 whole entry, the tested form may be a part, one chain of several): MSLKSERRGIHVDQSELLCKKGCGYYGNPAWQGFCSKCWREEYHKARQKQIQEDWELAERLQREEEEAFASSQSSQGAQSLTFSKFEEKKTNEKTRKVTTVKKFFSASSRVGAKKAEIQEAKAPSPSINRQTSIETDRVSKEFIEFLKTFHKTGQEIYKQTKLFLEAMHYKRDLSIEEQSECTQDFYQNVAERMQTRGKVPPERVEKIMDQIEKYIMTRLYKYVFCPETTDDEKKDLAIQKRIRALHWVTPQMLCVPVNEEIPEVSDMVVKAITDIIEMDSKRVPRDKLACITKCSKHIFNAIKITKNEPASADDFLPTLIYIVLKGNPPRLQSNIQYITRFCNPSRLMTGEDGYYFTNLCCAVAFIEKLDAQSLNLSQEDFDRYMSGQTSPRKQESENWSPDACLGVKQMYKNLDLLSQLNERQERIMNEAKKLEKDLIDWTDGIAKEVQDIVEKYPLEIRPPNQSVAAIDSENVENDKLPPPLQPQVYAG

Rabex5 = biological target: T2, Rabex5 (Bos taurus, UniProt O18973 1-492); assay: as above
T2 construct: Rabex5, Bos taurus, 57 kDa Vps9 domain containing GEF for Rab5; The His tag served for capture in the co-purification and was then cut with 3C protease; also called Rabex5-6xHis
T2 sequence (O18973 whole entry, the tested form may be a part): as the sequence (O18973 whole entry, the tested form may be a part, one chain of several) above

Rabaptin5 = biological target: T3, Rabaptin5 (human, UniProt Q15276 1-862); assay: HDX-MS; Rabex5/Rabaptin5 premixed with Rab5:GDP, ternary complex diluted into deuterated buffer with GTPγS, 1, 5 and 15 min, 22 °C; uptake compared with the sample without GTPγS
T3 construct: Rabaptin5, human, 99 kDa; GST served for capture in the co-purification and was then cut from the resin with GST-3C protease; also called GST-Rabaptin5; not shown: GST, N-terminal, cleaved
T3 sequence (looked up): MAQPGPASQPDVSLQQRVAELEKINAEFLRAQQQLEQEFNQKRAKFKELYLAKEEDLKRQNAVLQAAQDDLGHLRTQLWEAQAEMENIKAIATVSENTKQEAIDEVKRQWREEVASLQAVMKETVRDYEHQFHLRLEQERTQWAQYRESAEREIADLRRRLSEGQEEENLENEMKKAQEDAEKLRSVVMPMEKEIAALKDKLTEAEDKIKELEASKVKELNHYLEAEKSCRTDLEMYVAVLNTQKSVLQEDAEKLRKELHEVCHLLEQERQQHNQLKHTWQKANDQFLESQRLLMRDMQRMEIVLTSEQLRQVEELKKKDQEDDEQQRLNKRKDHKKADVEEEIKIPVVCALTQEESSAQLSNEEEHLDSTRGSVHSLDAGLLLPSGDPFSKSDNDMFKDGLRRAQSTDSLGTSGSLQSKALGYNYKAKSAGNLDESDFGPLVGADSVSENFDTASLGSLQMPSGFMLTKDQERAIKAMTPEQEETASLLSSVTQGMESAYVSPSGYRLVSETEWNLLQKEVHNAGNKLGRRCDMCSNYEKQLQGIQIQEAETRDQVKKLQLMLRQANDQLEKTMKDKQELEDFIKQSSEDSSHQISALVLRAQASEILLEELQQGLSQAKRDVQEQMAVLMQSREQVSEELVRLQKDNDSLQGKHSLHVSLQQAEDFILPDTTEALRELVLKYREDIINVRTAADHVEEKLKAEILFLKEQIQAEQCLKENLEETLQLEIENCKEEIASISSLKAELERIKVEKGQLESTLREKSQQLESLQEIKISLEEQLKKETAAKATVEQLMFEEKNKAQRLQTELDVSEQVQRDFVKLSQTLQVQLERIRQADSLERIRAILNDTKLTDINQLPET

Measured: binding result

B1: Rab5 (natural protein, human, UniProt P20339 1-215, looked up)
chain: MASRGATRPNGPNTGNKICQFKLVLLGESAVGKSSLVLRFVKGQFHEFQESTIGAAFLTQTVCLDDTTVKFEIWDTAGQERYHSLAPMYYRGAQAAIVVYDITNEESFARAKNWVKELQRQASPNIVIALSGNKADLANKRAVDFQEAQSYADDNSLLFMETSAKTSMNVNEIFMAIAKKLPKNEPQNPGANSARGRGVDLTEPTQPTRNQCCSN
notes: Rab5a, human; Rab5 as used in the HDX-MS experiment, printed there without GFP; also called Rab5a; Rab5:GDP; source: Sf9, purified (Ni-NTA, SEC)
binds: Rabex5/Rabaptin5 complex | Rabex5 | Rabaptin5
